# Measurements: article PMC8391708, “Anti-Inflammatory Effects of C1q/Tumor Necrosis Factor-Related Protein 3 (CTRP3) in Endothelial Cells” (Cells, 2021)
# B1: C1q/TNF-related protein 3 (CTRP3), recombinant (natural protein, human, UniProt Q9BXJ4 23-246, looked up)
# chain: QDEYMESPQTGGLPPDCSKCCHGDYSFRGYQGPPGPPGPPGIPGNHGNNGNNGATGHEGAKGEKGDKGDLGPRGERGQHGPKGEKGYPGIPPELQIAFMASLATHFSNQNSGIIFSSVETNIGNFFDVMTGRFGAPVSGVYFFTFSMMKHEDVEEVYVYLMHNGNTVFSMYSYEMKGKSDTSSNHAVLKLAKGDEVWLRMGNGALHGDHQRFSTFAGFLLFETK
# notes: C1q/TNF-related protein 3 (CTRP3), human, recombinant; also called C1q/Tumor Necrosis Factor-Related Protein 3; recombinant human CTRP3; source: baculovirus expression system in insect H5 cells
# Target: the molecule itself
# Test: SDS-PAGE; recombinant CTRP3 run on SDS-polyacrylamide gels, stained with Coomassie; band at <100 kDa read as a trimer
protein,measurement,value
B1,stoichiometry N,3
